Experimental data: the RNAGym collection of RNA variant scans (doi:10.7554/elife.80360)

B1: Hairpin Ribozyme (parent)
chain: GUCCUCUUUCACGUGCGCGUGAAAGAGAGAAGUGAACCAGAGAAACACACGUUGUGGUAUAUUACCUGGUA

Variants of: B1
Assay: self-cleavage, relative activity (ratio to wild type); higher = more cleavage; co-transcriptional

Compared with GUCCUCUUUCACGUGCGCGUGAAAGAGAGAAGUGAACCAGAGAACCACACGUUCUGGUAUAUUACCUGGUA, GUCCUCUUUCACGUGCGCGUGAAAGAGAGAAGUGAACCAGAGAGACACACGUUGUGGUAUAUUGCCUGGUA is lower in self-cleavage: 0.137 for the first, 0.0828 for the second.

First: GUCCUCUUUCACGUGCGCGUGAAAGAGAGAAGUGAACCAGAGAGACACACGUUGUGGUAUAUUACCUGGUU
Second: GUCCUCUUUCACGUGCGCGUGAAAGAGAGAAGUGAACCAGAGAUACACACGUUGAGGUAUAUUACCUGGUA
The self-cleavage of the first is lower: 0.158 for the first, 0.282 for the second.

Going from GUCCUCUUUCACGUGCGCGUGAAAGAGAGAAGUGAACCAGAGAUACACACGUUGUGGUAUAUUACCUAGUA to GUCCUCUUUCACGUGCGCGUGAAAGAGAGAAGUGAACCAGAGAUACACACGUUGUGGUAUAUUACCUCGUA, the self-cleavage rises from 0.116 to 0.148.

Compared with GUCCUCUUUCACGUGCGCGUGAAAGAGAGAAGUGAACCAGAGAACCACACGUUGUGGUAUUUUACCUGGUA, GUCCUCUUUCACGUGCGCGUGAAAGAGAGAAGUGAACCAGAGAACCACACGUUGUGGUAUCUUACCUGGUA is higher in self-cleavage: 0.186 for the first, 0.239 for the second.

Compared with GUCCUCUUUCACGUGCGCGUGAAAGAGAGAAGUGAACCAGAGAGACACACGUUGUGGUAUAUUACCUAGUA, GUCCUCUUUCACGUGCGCGUGAAAGAGAGAAGUGAACCAGAGAGACACACGUUGUGGUAUAUUACCUCGUA is higher in self-cleavage: 0.155 for the first, 0.244 for the second.

First: GUCCUCUUUCACGUGCGCGUGAAAGAGAGAAGUGAACCAGAGAACCACACAUUGUGGUAUAUUACCUGGUA
Second: GUCCUCUUUCACGUGCGCGUGAAAGAGAGAAGUGAACCAGAGAGACACACGUUGUGGUAUAUUACUUGGUA
The self-cleavage of the first is higher: 0.0999 for the first, 0.0408 for the second.

Compared with GUCCUCUUUCACGUGCGCGUGAAAGAGAGAAGUGAACCAGAGAUACACACGUUGUGUUAUAUUACCUGGUA, GUCCUCUUUCACGUGCGCGUGAAAGAGAGAAGUGAACCAGAGAUACACACGUUGUGCUAUAUUACCUGGUA is lower in self-cleavage: 0.206 for the first, 0.0924 for the second.

Compared with GUCCUCUUUCACGUGCGCGUGAAAGAGAGAAGUGAACCAGAGAUACACACGUUGUGGUAUAUUACGUGGUA, GUCCUCUUUCACGUGCGCGUGAAAGAGAGAAGUGAACCAGAGAUACACACAUUGUGGUAUAUUACCUGGUA is lower in self-cleavage: 0.183 for the first, 0.157 for the second.

Going from GUCCUCUUUCACGUGCGCGUGAAAGAGAGAAGUGAACCAGAGAUACACACCUUGUGGUAUAUUACCUGGUA to GUCCUCUUUCACGUGCGCGUGAAAGAGAGAAGUGAACCAGAGAUACACACUUUGUGGUAUAUUACCUGGUA, the self-cleavage falls from 0.246 to 0.096.

Going from GUCCUCUUUCACGUGCGCGUGAAAGAGAGAAGUGAACCAGAGAUACACACGUUGUGGUAUACUACCUGGUA to GUCCUCUUUCACGUGCGCGUGAAAGAGAGAAGUGAACCAGAGAUACACACGUUGUGGUAUAGUACCUGGUA, the self-cleavage falls from 0.0868 to 0.0672.

Going from GUCCUCUUUCACGUGCGCGUGAAAGAGAGAAGUGAACCAGAGAACCACACGUUGUGGUUUAUUACCUGGUA to GUCCUCUUUCACGUGCGCGUGAAAGAGAGAAGUGAACCAGAGAACCACACGUUGUGGUCUAUUACCUGGUA, the self-cleavage rises from 0.151 to 0.358.

First: GUCCUCUUUCACGUGCGCGUGAAAGAGAGAAGUGAACCAGAGAACCACACGUUGUGGUAUAUUACCUGGUU
Second: GUCCUCUUUCACGUGCGCGUGAAAGAGAGAAGUGAACCAGAGAACCACACGUUGUGGUAUAUUACCUGGUC
The self-cleavage of the first is lower: 0.184 for the first, 0.453 for the second.

Compared with GUCCUCUUUCACGUGCGCGUGAAAGAGAGAAGUGAACCAGAGAUACACACGUUGUGGUAUAUUACCUGGUA, GUCCUCUUUCACGUGCGCGUGAAAGAGAGAAGUGAACCAGAGAUACUCACGUUGUGGUAUAUUACCUGGUA is lower in self-cleavage: 0.141 for the first, 0.0528 for the second.

Going from GUCCUCUUUCACGUGCGCGUGAAAGAGAGAAGUGAACCAGAGAUACACACGAUGUGGUAUAUUACCUGGUA to GUCCUCUUUCACGUGCGCGUGAAAGAGAGAAGUGAACCAGAGAGACAGACGUUGUGGUAUAUUACCUGGUA, the self-cleavage falls from 0.237 to 0.115.

Going from GUCCUCUUUCACGUGCGCGUGAAAGAGAGAAGUGAACCAGAGAGACAUACGUUGUGGUAUAUUACCUGGUA to GUCCUCUUUCACGUGCGCGUGAAAGAGAGAAGUGAACCAGAGAGACACACGUUGCGGUAUAUUACCUGGUA, the self-cleavage falls from 0.0899 to 0.0374.

Going from GUCCUCUUUCACGUGCGCGUGAAAGAGAGAAGUGAACCAGAGAGACACACGUUGAGGUAUAUUACCUGGUA to GUCCUCUUUCACGUGCGCGUGAAAGAGAGAAGUGAACCAGAGAGACACACGUUGUGGUAUAUUACCUGGAA, the self-cleavage falls from 0.0483 to 0.

First: GUCCUCUUUCACGUGCGCGUGAAAGAGAGAAGUGAACCAGAGAACCACACGUUGAGGUAUAUUACCUGGUA
Second: GUCCUCUUUCACGUGCGCGUGAAAGAGAGAAGUGAACCAGAGAACCACACGUUGUGGCAUAUUACCUGGUA
The self-cleavage of the first is higher: 0.192 for the first, 0.0787 for the second.

Going from GUCCUCUUUCACGUGCGCGUGAAAGAGAGAAGUGAACCAGAGAACCACACGUUGUGGUAUAUUACAUGGUA to GUCCUCUUUCACGUGCGCGUGAAAGAGAGAAGUGAACCAGAGAACCACACGUUGUGGUAUAUUACGUGGUA, the self-cleavage rises from 0.187 to 0.319.

Going from GUCCUCUUUCACGUGCGCGUGAAAGAGAGAAGUGAACCAGAGAACCACACGUUGUGGUAUAUUACUUGGUA to GUCCUCUUUCACGUGCGCGUGAAAGAGAGAAGUGAACCAGAGAGACACACGUUUUGGUAUAUUACCUGGUA, the self-cleavage rises from 0 to 0.16.

Compared with GUCCUCUUUCACGUGCGCGUGAAAGAGAGAAGUGAACCAGAGAACCACACGUUGUGGUAUAAUACCUGGUA, GUCCUCUUUCACGUGCGCGUGAAAGAGAGAAGUGAACCAGAGAGACACACGUUGUUGUAUAUUACCUGGUA is lower in self-cleavage: 0.332 for the first, 0.226 for the second.

Compared with GUCCUCUUUCACGUGCGCGUGAAAGAGAGAAGUGAACCAGAGAACCACACGUCGUGGUAUAUUACCUGGUA, GUCCUCUUUCACGUGCGCGUGAAAGAGAGAAGUGAACCAGAGAACCACACGUAGUGGUAUAUUACCUGGUA is higher in self-cleavage: 0.0463 for the first, 0.123 for the second.

Going from GUCCUCUUUCACGUGCGCGUGAAAGAGAGAAGUGAACCAGAGAGACACACGUUGUGGUAAAUUACCUGGUA to GUCCUCUUUCACGUGCGCGUGAAAGAGAGAAGUGAACCAGAGAUACACACGUUGUGGUAUAUUACCUGCUA, the self-cleavage falls from 0.171 to 0.159.

Compared with GUCCUCUUUCACGUGCGCGUGAAAGAGAGAAGUGAACCAGAGAGACACACGUUGUGGUAUAUUACCUGCUA, GUCCUCUUUCACGUGCGCGUGAAAGAGAGAAGUGAACCAGAGAGACACACGUUGUGGUAUAUUACCUGUUA is lower in self-cleavage: 0.196 for the first, 0.0884 for the second.

Compared with GUCCUCUUUCACGUGCGCGUGAAAGAGAGAAGUGAACCAGAGAUACACAGGUUGUGGUAUAUUACCUGGUA, GUCCUCUUUCACGUGCGCGUGAAAGAGAGAAGUGAACCAGAGAUACACAAGUUGUGGUAUAUUACCUGGUA is higher in self-cleavage: 0.156 for the first, 0.172 for the second.

First: GUCCUCUUUCACGUGCGCGUGAAAGAGAGAAGUGAACCAGAGAUACACACGUUGUCGUAUAUUACCUGGUA
Second: GUCCUCUUUCACGUGCGCGUGAAAGAGAGAAGUGAACCAGAGAUAGACACGUUGUGGUAUAUUACCUGGUA
The self-cleavage of the first is higher: 0.239 for the first, 0.0928 for the second.

First: GUCCUCUUUCACGUGCGCGUGAAAGAGAGAAGUGAACCAGAGAACCACACGUUGUGGUAGAUUACCUGGUA
Second: GUCCUCUUUCACGUGCGCGUGAAAGAGAGAAGUGAACCAGAGAACCACACGUUGUGGUAUAUUACCUAGUA
The self-cleavage of the first is lower: 0.165 for the first, 0.229 for the second.

Going from GUCCUCUUUCACGUGCGCGUGAAAGAGAGAAGUGAACCAGAGAACCACACGUUGUGGUAUAUUACCUUGUA to GUCCUCUUUCACGUGCGCGUGAAAGAGAGAAGUGAACCAGAGAGACACACGUUGUGGUAUAUUAACUGGUA, the self-cleavage falls from 0.166 to 0.0664.

Going from GUCCUCUUUCACGUGCGCGUGAAAGAGAGAAGUGAACCAGAGAGACACACGUUGUGGUAUAUUAUCUGGUA to GUCCUCUUUCACGUGCGCGUGAAAGAGAGAAGUGAACCAGAGAGACACACGUUGUGGGAUAUUACCUGGUA, the self-cleavage rises from 0.0694 to 0.198.

Compared with GUCCUCUUUCACGUGCGCGUGAAAGAGAGAAGUGAACCAGAGAGACACACGUUGUGUUAUAUUACCUGGUA, GUCCUCUUUCACGUGCGCGUGAAAGAGAGAAGUGAACCAGAGAGACACACGUUGUGCUAUAUUACCUGGUA is higher in self-cleavage: 0.022 for the first, 0.148 for the second.

First: GUCCUCUUUCACGUGCGCGUGAAAGAGAGAAGUGAACCAGAGAACCACACGUUGUGAUAUAUUACCUGGUA
Second: GUCCUCUUUCACGUGCGCGUGAAAGAGAGAAGUGAACCAGAGAUACACACGUCGUGGUAUAUUACCUGGUA
The self-cleavage of the first is higher: 0.115 for the first, 0.0977 for the second.

Going from GUCCUCUUUCACGUGCGCGUGAAAGAGAGAAGUGAACCAGAGAUACACACGUUGUGGUAGAUUACCUGGUA to GUCCUCUUUCACGUGCGCGUGAAAGAGAGAAGUGAACCAGAGAACCACACGUUGUGGUAUAUUACCUGCUA, the self-cleavage rises from 0.179 to 0.193.

Going from GUCCUCUUUCACGUGCGCGUGAAAGAGAGAAGUGAACCAGAGAACCACACGUUGUGGUAUAUUACCUGUUA to GUCCUCUUUCACGUGCGCGUGAAAGAGAGAAGUGAACCAGAGAGACACACGUUGUGGUAUAUUACCGGGUA, the self-cleavage falls from 0.215 to 0.149.

Compared with GUCCUCUUUCACGUGCGCGUGAAAGAGAGAAGUGAACCAGAGAGACACACGUUGUGGUAUAUUACCAGGUA, GUCCUCUUUCACGUGCGCGUGAAAGAGAGAAGUGAACCAGAGAUACACACGUUGUGGUAUAUUAUCUGGUA is lower in self-cleavage: 0.161 for the first, 0.14 for the second.

Going from GUCCUCUUUCACGUGCGCGUGAAAGAGAGAAGUGAACCAGAGAUACAGACGUUGUGGUAUAUUACCUGGUA to GUCCUCUUUCACGUGCGCGUGAAAGAGAGAAGUGAACCAGAGAGACACACGUUGUGGUCUAUUACCUGGUA, the self-cleavage rises from 0.12 to 0.179.

Going from GUCCUCUUUCACGUGCGCGUGAAAGAGAGAAGUGAACCAGAGAGACACACGUUGUGGUUUAUUACCUGGUA to GUCCUCUUUCACGUGCGCGUGAAAGAGAGAAGUGAACCAGAGAUACACACGUUGUGGAAUAUUACCUGGUA, the self-cleavage falls from 0.155 to 0.0794.

First: GUCCUCUUUCACGUGCGCGUGAAAGAGAGAAGUGAACCAGAGAUACACACGUUGUGGCAUAUUACCUGGUA
Second: GUCCUCUUUCACGUGCGCGUGAAAGAGAGAAGUGAACCAGAGAUCCACACGUUGUGGUAUAUUACCUGGUA
The self-cleavage of the first is lower: 0.177 for the first, 0.321 for the second.

Compared with GUCCUCUUUCACGUGCGCGUGAAAGAGAGAAGUGAACCAGAGAUACACACGUUGUGGUAUAUUACCUGGCA, GUCCUCUUUCACGUGCGCGUGAAAGAGAGAAGUGAACCAGAGAUACACACGUUGUGGUAUAUUACCUGGAA is higher in self-cleavage: 0.0872 for the first, 0.0951 for the second.

First: GUCCUCUUUCACGUGCGCGUGAAAGAGAGAAGUGAACCAGAGAACCGCACGUUGUGGUAUAUUACCUGGUA
Second: GUCCUCUUUCACGUGCGCGUGAAAGAGAGAAGUGAACCAGAGAGACACACGAUGUGGUAUAUUACCUGGUA
The self-cleavage of the first is lower: 0.0534 for the first, 0.246 for the second.
